US20220017635A1 (Kyowa Kirin, published 2022)

T1: huTfR with mouse apical domain (human/mouse chimera, UniProt P02786 89-760)
T1 construct: His tag added; also called chimeric protein of human TfR extracellular domain with mouse apical domain
T1 chain: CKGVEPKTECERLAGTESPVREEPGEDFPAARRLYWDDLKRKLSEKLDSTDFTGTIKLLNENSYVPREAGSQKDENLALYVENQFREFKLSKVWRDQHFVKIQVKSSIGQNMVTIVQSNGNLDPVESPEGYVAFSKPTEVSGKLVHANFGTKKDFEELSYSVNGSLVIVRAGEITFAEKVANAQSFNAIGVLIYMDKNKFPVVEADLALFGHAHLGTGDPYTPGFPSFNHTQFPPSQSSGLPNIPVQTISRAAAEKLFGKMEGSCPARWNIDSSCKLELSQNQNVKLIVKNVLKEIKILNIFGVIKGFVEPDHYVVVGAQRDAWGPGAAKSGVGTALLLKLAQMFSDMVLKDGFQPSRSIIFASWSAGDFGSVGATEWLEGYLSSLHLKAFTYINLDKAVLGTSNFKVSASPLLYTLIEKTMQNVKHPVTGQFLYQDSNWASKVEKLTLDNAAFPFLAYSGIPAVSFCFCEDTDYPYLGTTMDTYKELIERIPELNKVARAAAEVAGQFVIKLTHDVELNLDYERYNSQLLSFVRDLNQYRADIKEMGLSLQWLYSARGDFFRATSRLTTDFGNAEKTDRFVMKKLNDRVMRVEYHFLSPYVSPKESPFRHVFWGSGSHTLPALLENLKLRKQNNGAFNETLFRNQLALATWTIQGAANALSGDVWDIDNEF

T2: huTfR with mouse protease-like domain (human/mouse chimera)
T2 construct: His tag added; also called chimeric protein of human TfR extracellular domain with mouse protease-like domain
T2 chain: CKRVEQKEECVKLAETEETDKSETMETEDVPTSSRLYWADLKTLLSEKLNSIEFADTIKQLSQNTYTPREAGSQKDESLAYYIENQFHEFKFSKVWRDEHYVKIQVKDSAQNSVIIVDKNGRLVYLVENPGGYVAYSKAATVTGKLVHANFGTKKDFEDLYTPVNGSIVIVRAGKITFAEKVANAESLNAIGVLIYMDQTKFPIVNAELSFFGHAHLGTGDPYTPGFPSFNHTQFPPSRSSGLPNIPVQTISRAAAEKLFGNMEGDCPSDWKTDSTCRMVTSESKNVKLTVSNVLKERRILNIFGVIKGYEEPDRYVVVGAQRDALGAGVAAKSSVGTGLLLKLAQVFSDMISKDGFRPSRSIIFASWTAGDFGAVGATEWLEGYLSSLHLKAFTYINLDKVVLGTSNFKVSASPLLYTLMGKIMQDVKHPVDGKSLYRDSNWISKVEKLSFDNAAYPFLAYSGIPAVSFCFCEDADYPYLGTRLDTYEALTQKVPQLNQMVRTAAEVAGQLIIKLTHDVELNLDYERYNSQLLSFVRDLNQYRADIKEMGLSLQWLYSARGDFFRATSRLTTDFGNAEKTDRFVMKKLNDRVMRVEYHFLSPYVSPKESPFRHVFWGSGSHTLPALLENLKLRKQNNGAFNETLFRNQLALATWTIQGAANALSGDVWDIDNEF

T3: chimeric TfR A02 (human/mouse chimera, UniProt P02786 89-760)
T3 construct: also called D352S-S355A-D356R-K358N
T3 chain: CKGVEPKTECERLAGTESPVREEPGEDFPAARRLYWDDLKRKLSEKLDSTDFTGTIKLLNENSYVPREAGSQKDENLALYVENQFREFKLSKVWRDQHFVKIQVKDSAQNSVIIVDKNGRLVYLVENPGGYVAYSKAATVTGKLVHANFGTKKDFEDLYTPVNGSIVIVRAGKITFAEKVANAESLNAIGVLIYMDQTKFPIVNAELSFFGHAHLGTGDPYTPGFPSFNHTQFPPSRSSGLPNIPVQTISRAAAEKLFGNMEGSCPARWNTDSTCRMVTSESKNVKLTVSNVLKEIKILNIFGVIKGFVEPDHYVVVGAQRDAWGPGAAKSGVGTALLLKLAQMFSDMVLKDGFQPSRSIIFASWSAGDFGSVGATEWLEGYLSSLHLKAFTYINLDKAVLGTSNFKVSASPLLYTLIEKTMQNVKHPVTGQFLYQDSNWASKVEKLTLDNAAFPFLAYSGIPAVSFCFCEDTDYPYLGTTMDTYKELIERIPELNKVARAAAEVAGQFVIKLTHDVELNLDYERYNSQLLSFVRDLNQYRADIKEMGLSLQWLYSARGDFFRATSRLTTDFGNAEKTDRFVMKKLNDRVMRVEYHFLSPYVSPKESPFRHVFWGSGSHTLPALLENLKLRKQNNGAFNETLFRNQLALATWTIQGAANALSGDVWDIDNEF

B1: T14 (antibody, V domains shown)
VH: EVQLVESGGGLVQPGGSLRLSCVVSGGTFSNFNMNWVRQAPGKGLEWVSYISGSSSTIYYADSVKGRFTISRDNAKNSLYLQMNSLRDEDTAVYYCVSSSWYYWGQGTLVTVSS
VL: not shown
notes: IgG4PE or IgG4PE R409K constant region; also called anti-TfR antibody T14
B2: 2230 (antibody, V domains shown)
VH: QVQLQESGPGLVKPSETLSLTCTVSGGSISSYYWSWIRQPPGKGLEWIGYIYYSGSTNYNPSLKSRVTISLDTSKNQFSLRLSSVTTADTALYYCTREAGYYDSSGYYGFDYWGQGTLVTVSS
VL: DIQMTQSPSSLSASVGDRVTITCRASQGISSWLAWYQQKPEKAPKSLIYAASSLQSGVPSRFSGSGSGTDFTLTISSLQPEDFATYFCQQYYNYPYTFGQGTKLEIK
notes: From a hybridoma; light chain other than A27; also called clone 2230; anti-TfR antibody 2230

Assays:
chimeric TfR A05 [1] = target: T4, chimeric TfR A05 (human/mouse chimera, UniProt P02786 89-760); test: ELISA on immobilized chimeric TfR
T4 construct: also called P249S-L274F
Procedure: (§1) ELISA was carried out by the following method. To a 96-well immunoplate (NUNC, Inc.) on which an antigen protein was immobilized, 1% (w/v) BSA-PBS(−) pH 7.0 without KCl (hereinafter referred to as blocking solution, Nacalai Tesque, Inc.) was added to perform blocking at room temperature, and thereafter, the anti-TfR antibody diluted with the same solution was added thereto and a reaction was allowed to proceed at room temperature for 1 hour. Thereafter, washing was performed with 0.05% (w/v)-tPBS (1×) without KCl (pH 7.2) (hereinafter referred to as washing solution, Nacalai Tesque, Inc.), Anti-Human IgG (Fc) Goat IgG Fab″-HRP (IBL, Inc.) diluted with the blocking solution was added thereto, and a reaction was allowed to proceed at room temperature for 1 hour. Thereafter, washing was performed with the washing solution, and 1-Step (registered trademark) Ultra TMB-ELISA Substrate Solution (Thermo, Inc.) was added thereto, and a reaction was allowed to proceed at room temperature. The coloring reaction was stopped by adding a 5 N HCl solution, and an absorbance at a wavelength of 450 nm (reference wavelength: 570 nm) was measured using a plate reader (EPOCH 2: BioTek Instruments, Inc.).
(§2) Further, a value obtained by subtracting the absorbance at the reference wavelength of 570 nm from the absorbance at a wavelength of 450 nm was regarded as the binding activity to any of various types of antigen proteins, and a case where a value obtained by dividing the binding activity to any of various types of chimeric TfR by the binding activity to His-huTfR was 0.5 or more was denoted by ++, a case where the value was 0.2 or more and less than 0.5 was denoted by +, and a case where the value was less than 0.2 was denoted by −.

[2] = target: T1, huTfR with mouse apical domain; test: ELISA on immobilized chimeric TfR
Procedure: as §1, §2

[3] = target: T2, huTfR with mouse protease-like domain; test: ELISA on immobilized chimeric TfR; grade = binding relative to His-huTfR (++ 0.5 or more, + 0.2 to less than 0.5)
Procedure: as §1, §2

chimeric TfR A07 = target: T5, chimeric TfR A07 (human/mouse chimera, UniProt P02786 89-760); test: as above
T5 construct: also called M365L-V366E-E369Q
Procedure: as §1, §2

chimeric TfR A02 = target: T3, chimeric TfR A02; test: as above
Procedure: as §1, §2

chimeric TfR A03 = target: T6, chimeric TfR A03 (human/mouse chimera, UniProt P02786 89-760); test: as above
T6 construct: also called D245E-K261E
Procedure: as §1, §2

chimeric TfR A04 = target: T7, chimeric TfR A04 (human/mouse chimera, UniProt P02786 89-760); test: as above
T7 construct: also called D245E-K261E-D356R
Procedure: as §1, §2

chimeric TfR A14 = target: T8, chimeric TfR A14 (human/mouse chimera, UniProt P02786 89-760); test: as above
T8 construct: also called D204Q-K205S-E369Q
Procedure: as §1, §2

[4] = target: T2, huTfR with mouse protease-like domain; test: ELISA on immobilized chimeric TfR
Procedure: as §1, §2

chimeric TfR A05 [5] = target: T4, chimeric TfR A05; test: ELISA on immobilized chimeric TfR; grade = binding relative to His-huTfR (++ 0.5 or more, + 0.2 to less than 0.5)
Procedure: as §1, §2

[6] = target: T1, huTfR with mouse apical domain; test: as above
Procedure: as §1, §2

mouse TfR on CHO cells = target: T9, mouse TfR on CHO cells (mouse, UniProt Q62351 1-763); test: flow cytometry on mouse TfR/CHO cells
T9 construct: also called mouse TfR/CHO
Procedure: Subsequently, an epitope analysis for various types of TfR antibodies was carried out.

| Binder | ratio of ELISA binding activity (A450-A570) to chimeric TfR over that to His-huTfR (chimeric TfR A05 [1]) [ratio] | ratio of ELISA binding activity (A450-A570) to chimeric TfR over that to His-huTfR [2] [ratio] | ratio of ELISA binding activity (A450-A570) to chimeric TfR over that to His-huTfR [3] [ratio] | ratio of ELISA binding activity (A450-A570) to chimeric TfR over that to His-huTfR (chimeric TfR A07) [ratio] | ratio of ELISA binding activity (A450-A570) to chimeric TfR over that to His-huTfR (chimeric TfR A02) [ratio] | ratio of ELISA binding activity (A450-A570) to chimeric TfR over that to His-huTfR (chimeric TfR A03) [ratio] | ratio of ELISA binding activity (A450-A570) to chimeric TfR over that to His-huTfR (chimeric TfR A04) [ratio] | ratio of ELISA binding activity (A450-A570) to chimeric TfR over that to His-huTfR (chimeric TfR A14) [ratio] | ratio of ELISA binding activity (A450-A570) to chimeric TfR over that to His-huTfR [4] [ratio] | ratio of ELISA binding activity (A450-A570) to chimeric TfR over that to His-huTfR (chimeric TfR A05 [5]) [ratio] | ratio of ELISA binding activity (A450-A570) to chimeric TfR over that to His-huTfR [6] [ratio] | binding result (mouse TfR on CHO cells) |
| --- | --- | --- | --- | --- | --- | --- | --- | --- | --- | --- | --- | --- |
| B1 | < 0.2 | < 0.2 | ≥ 0.5 | ≥ 0.5 | ≥ 0.5 | ≥ 0.5 | 0.2 to 0.5 | ≥ 0.5 | – | – | – | – |
| B2 | – | – | – | ≥ 0.5 | ≥ 0.5 | ≥ 0.5 | ≥ 0.5 | ≥ 0.5 | < 0.2 | ≥ 0.5 | ≥ 0.5 | no binding |
